# Laboratory results published in PMC4753514.
# Key:
# [1] = target: Ecad-Fc (recombinant human epithelial cadherin fused with IgG-Fc)
# [2] = target: ProG-TGT (Protein G fragment, amino acids 190-384, conjugated to a double-stranded DNA tension gauge tether with biotin) (UniProt P19909); experiment: micro-ring resonator; 200 ug/ml neutravidin, 0.05 uM ProG-TGT and 50 ug/ml Ecad-Fc flowed successively over a polymer-passivated surface presenting biotin; ProG-TGT held through biotin:neutravidin; film thickness read out
surface density of adhered DLD-1 cells on the ProG-TGT (43 pN) surface with Ecad-Fc (control surface without Ecad-Fc: 8/mm^2) [1],Substance,film thickness increase [2] [pm],stoichiometry N (Ecad-Fc per ProG-TGT (molar ratio)) [2]
386 /mm^2,E-cadherin on DLD-1 cells (from UniProt P12830 155-882) (receptor),,
,Ecad-Fc (recombinant human epithelial cadherin fused with IgG-Fc) (Fc fusion),237,0.87
